Measurements: the supplement of paper PMC10567573

B1: LOC100129726 (parent)
chain: VHTGCHKKLGPEARRPRTRWGKN
B2: SPDEF (parent)
chain: FQELAGKELCAMSEEQFRQRSPLG

Variants of: B1
Test: protein stability index of a GFP-peptide fusion (GPS, HEK-293T) (PSI 1-6); higher = more stable
Settings: c terminus: native
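Note: lentivirally expressed fusions sorted by FACS into six bins by GFP to DsRed ratio, PSI derived from sequencing read proportions per bin multiplied by bin number.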

Protein stability index: each site, then its substitutions
K8: M 2.25, S 2.25, C 1.65, Q 2.41, P 2.52, I 1.37, L 2.63, E 1.63
G10: P 3.1, M 1.61, F 1.66, A 3.09, K 2.05, I 1.33, L 1.22, H 1.74
V1: L 1.84, E 2.96, R 2.02, M 1.73, C 2.12, S 1.99, I 2.54, H 2.43
H2: G 2.38, R 4, M 2.79, N 2.5, T 1.49, Q 2.44, P 2.05, V 2.99, W 1.38, D 1.82, K 1.94, A 2.13, Y 1.85, L 2.38
T3: I 2.94, D 3.27, F 1.95, Y 1.01, P 1.67
G4: M 2.44, R 2.47, V 2.14, F 2.72, K 2.71, N 1.01, I 2.66, E 3.67, D 2.33, C 2.51, P 2.15, L 2.91, S 2.56
L9: R 2.64, C 2.4, V 2.02, N 2.8, P 2.92, H 1.62, Q 2.72
H6: F 1.81, S 1.85, M 2.12, P 1.77, T 1.76, Y 2.62, R 2.85, E 1.41, G 1.64, K 1.38, A 1.63
C5: R 2.29, W 1.2, I 1.63, E 2.57, P 2.09, S 1.51, K 2.27, M 2.41, Y 1.98, L 2.41, Q 1.54, F 1.85, V 2.93, T 2.35, A 2.57, N 1.59, G 2.34
K7: H 2.33, V 1.08, E 1.87, M 4.17

Variants of: B2
Test: as above
Settings: c terminus: a fixed tail appended

Protein stability index of substitutions, site by site:
G6: W 2.65, M 2.46, P 3.7, V 1.68, S 2.53, H 2.73, I 2.69, C 2.28, R 2.58, F 1.84
E3: N 3.09, L 2.22, A 3.06, C 2.48, Y 2.69, P 2.64, D 2.1, K 3.3, F 1.95, M 1.79
E15: I 2.04, S 2.21, H 2.01, D 2.74, N 2.13, K 2.24, G 2.3, P 2.41, W 2.56, V 1.93, T 2.38, R 2.5, M 2.19, A 3.05
A5: V 3.44, W 1.9, S 2.24, H 2.73, F 2.5, Q 3.32, N 2.82, T 2.46, C 2.69, G 2.88, I 2.47, R 2.17
L4: T 3.94, W 2.4, E 4.48, K 3.59, F 2.84, R 3, D 4.38, A 3.35, M 2.6, Q 3.91, C 4.02, G 3.97
M12: C 2.39, D 3.83, Y 2.88, K 3.3, S 3.75, W 1.79, Q 3.19, F 2.47
Q16: C 2.86, W 1.92, E 3.06, H 2.43, V 2.28, D 3.23, F 2.13, T 2.65, G 2.74, M 2.23
C10: A 3.31, S 3.4, I 3.34, D 4.38, P 4.32, H 3.12, K 2.67, Q 3.46, R 3.12, W 1.9, F 2, V 2.93, T 3.52, N 3.1, M 2.91
P22: C 2.62, Q 2.74, H 3.45, S 2.92, F 2.43, W 1.75
E14: F 2.22, M 2.03, T 1.89, Y 2.49, K 2.15, R 2.52, D 2.89, I 1.8, N 2.81, P 2.38, Q 2.63, L 2.3, G 2.21
Q19: A 2.67, M 2.33, W 1.59, R 2.4, E 4.17, Y 2.3, P 2.74, D 2.87, I 2.39, V 2.42, H 2.93
A11: K 2.61, L 2.23, Y 2.67, M 2.35, T 2.31, R 2.52, P 3.56
Q2: C 2.36, A 2.07, E 4.17, Y 2.96, R 3.32, V 2.73, T 1.94, S 2.55, L 2.12, H 2.57, F 3.35, P 2.86
R20: L 2.55, G 2.49, I 2.86, H 2.74, Q 2.72, D 3.47, T 2.91, A 2.79, W 2.52, V 2.1
S13: M 2.45, F 2.15, D 2.89, A 3.62, T 2.69, C 2.11, I 2.19, P 3.18, H 2.2, Y 2.4
G24: I 2.1, Y 2.12, Q 2.44, H 2.44, P 2.89, E 2.56, W 1.93, F 2.05, T 2.76, K 3.44, A 2.94
F1: N 4.72, V 4.27, I 3.88, P 4.49, H 4.02, C 3.9, G 4.57, Q 4.93, D 4.94, L 4.45, S 4.61
L9: C 2.63, P 3.83, R 3.24, T 3.69, F 2.56
S21: F 3.17, A 2.73, N 2.6, H 2.82, Y 2.96, V 2.99, L 2.6, C 2.51, M 2.74, P 2.43
R18: M 2.51, Y 2.29, P 2.92, C 2.51, V 2.8, K 2.46
F17: N 3.02, H 3.14, W 2.67, M 2.66, Y 2.93, E 3.85, R 2.97, G 3.58, C 3.14
K7: C 1.99, Q 4, N 2.84, D 4.25, M 2.97, E 3.66, H 2.86, L 2.3, R 2.3, S 2.94
L23: F 2.78, H 3.18, T 2.77, I 2.9, S 3.16, G 3.31, M 2.84, V 3.09, Y 2.59
E8: W 2.87, V 2.52, T 1.99, P 2.06, F 2.79, K 2.32, M 2.5, S 2.12
